From patent US20240156928A1 come the findings set out here.

For the assay, the target named is CD19 (UniProt P15391). Put plainly: cell-based or functional assay.

As for “CD19R:CD28:z(CO) CAR with L235E and N297Q in the IgG4 spacer (CD19R(EQ))”, the intracellular IFNγ staining, percent of T cells was 30%.
